{
  "source": "patent US20260242735A1",
  "about": "(UNIVERSIT T BASEL, published 2026)",
  "binders": {"B1": {"name": "Refmab #2 (antibody, V domains shown)", "VH": "QVQLVQSGAEVKKPGSSVKVSCKASGGTFSDYAISWVRQAPGQGLEWMGRIIPILGVADYAQKFQGRVTITADKSTRTAYMELSSLRSEDTAVYYCARNWADAFDIWGQGTMVTVSS", "VL": "DIQLTQSPSSLSASVGDRVTITCRASQGISSVLAWYQQKPGKAPKLLIYDASSLESGVPSRFSGSGSGTDFTLTISSLQPEDFATYYCQQFDSSITFGQGTKLEIK", "notes": "The alanine scan used IgG or Fab"}},
  "experiment_in_all_cases": "flow cytometry on HEK293-T, alanine scan",
  "key": {"human CD33 D95A": {"target": "human CD33 D95A (human, UniProt P20138 18-364)", "sequence (P20138 18-364 D95A limits assumed)": "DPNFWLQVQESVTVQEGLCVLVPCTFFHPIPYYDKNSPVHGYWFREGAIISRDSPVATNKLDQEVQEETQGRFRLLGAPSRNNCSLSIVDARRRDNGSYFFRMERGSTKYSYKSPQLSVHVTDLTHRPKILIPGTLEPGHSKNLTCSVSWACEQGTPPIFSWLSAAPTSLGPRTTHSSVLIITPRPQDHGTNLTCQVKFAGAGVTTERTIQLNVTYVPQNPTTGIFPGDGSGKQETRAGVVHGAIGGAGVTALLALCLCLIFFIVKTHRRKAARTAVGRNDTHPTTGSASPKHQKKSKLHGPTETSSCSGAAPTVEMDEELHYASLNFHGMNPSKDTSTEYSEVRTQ", "experimental": "(§1) An alanine scan on human CD33 was performed to the determine the residues on CD33 that are involved in binding to the antibodies investigated. […] Briefly, a mutation library of CD33 was created by high-throughput, site-directed mutagenesis. Each residue was individually mutated to alanine, with alanine codons mutated to serine. The mutant library was arrayed in 384-well microplates and transiently transfected into HEK293-T. Following transfection, cells were incubated with the indicated antibodies (IgG or Fab) at concentrations pre-determined using an independent immunofluorescence titration curve on wild type CD33. […] Binding of each antibody to each mutant clone was determined in duplicates. For each point, background fluorescence was subtracted from the raw data, which were then normalized to antibody reactivity with wild type CD33.\n(§2) Critical residues for antibody binding (outlined in dark grey) were residues whose mutations led to a binding of the test Abs of less than 20%. Additional secondary residues (outlined in light grey) were identified that led to a binding of the test Abs of between 20 and 40% as compared to the wild type CD33."}, "human CD33 G114A": {"target": "human CD33 G114A (human, UniProt P20138 18-364)", "sequence (P20138 18-364 G114A limits assumed)": "as the sequence (P20138 18-364 D95A limits assumed) above, with A78D, G97A counted along it", "experimental": "as §1, §2"}, "human CD33 T125A": {"target": "human CD33 T125A (human, UniProt P20138 18-364)", "sequence (P20138 18-364 T125A limits assumed)": "as the sequence (P20138 18-364 D95A limits assumed) above, with A78D, T108A counted along it", "experimental": "as §1, §2"}, "human CD33 L153A": {"target": "human CD33 L153A (human, UniProt P20138 18-364)", "sequence (P20138 18-364 L153A limits assumed)": "as the sequence (P20138 18-364 D95A limits assumed) above, with A78D, L136A counted along it", "experimental": "as §1, §2"}, "human CD33 R111A": {"target": "human CD33 R111A (human, UniProt P20138 18-364)", "sequence (P20138 18-364 R111A limits assumed)": "as the sequence (P20138 18-364 D95A limits assumed) above, with A78D, R94A counted along it", "experimental": "as §1, §2"}, "human CD33 N113A": {"target": "human CD33 N113A (human, UniProt P20138 18-364)", "sequence (P20138 18-364 N113A limits assumed)": "as the sequence (P20138 18-364 D95A limits assumed) above, with A78D, N96A counted along it", "experimental": "as §1, §2"}, "human CD33 L148A": {"target": "human CD33 L148A (human, UniProt P20138 18-364)", "sequence (P20138 18-364 L148A limits assumed)": "as the sequence (P20138 18-364 D95A limits assumed) above, with A78D, L131A counted along it", "experimental": "as §1, §2"}, "human CD33 L93A": {"target": "human CD33 L93A (human, UniProt P20138 18-364)", "sequence (P20138 18-364 L93A limits assumed)": "as the sequence (P20138 18-364 D95A limits assumed) above, with L76A, A78D counted along it", "experimental": "as §1, §2"}, "human CD33 S115A": {"target": "human CD33 S115A (human, UniProt P20138 18-364)", "sequence (P20138 18-364 S115A limits assumed)": "as the sequence (P20138 18-364 D95A limits assumed) above, with A78D, S98A counted along it", "experimental": "as §1, §2"}, "human CD33 Q133A": {"target": "human CD33 Q133A (human, UniProt P20138 18-364)", "sequence (P20138 18-364 Q133A limits assumed)": "as the sequence (P20138 18-364 D95A limits assumed) above, with A78D, Q116A counted along it", "experimental": "as §1, §2"}, "human CD33 T152A": {"target": "human CD33 T152A (human, UniProt P20138 18-364)", "sequence (P20138 18-364 T152A limits assumed)": "as the sequence (P20138 18-364 D95A limits assumed) above, with A78D, T135A counted along it", "experimental": "as §1, §2"}, "human CD33 R110A": {"target": "human CD33 R110A (human, UniProt P20138 18-364)", "sequence (P20138 18-364 R110A limits assumed)": "as the sequence (P20138 18-364 D95A limits assumed) above, with A78D, R93A counted along it", "experimental": "as §1, §2"}, "human CD33 D112A": {"target": "human CD33 D112A (human, UniProt P20138 18-364)", "sequence (P20138 18-364 D112A limits assumed)": "as the sequence (P20138 18-364 D95A limits assumed) above, with A78D, D95A counted along it", "experimental": "as §1, §2"}, "human CD33 P132A": {"target": "human CD33 P132A (human, UniProt P20138 18-364)", "sequence (P20138 18-364 P132A limits assumed)": "as the sequence (P20138 18-364 D95A limits assumed) above, with A78D, P115A counted along it", "experimental": "as §1, §2"}, "human CD33 V138A": {"target": "human CD33 V138A (human, UniProt P20138 18-364)", "sequence (P20138 18-364 V138A limits assumed)": "as the sequence (P20138 18-364 D95A limits assumed) above, with A78D, V121A counted along it", "experimental": "as §1, §2"}, "human CD33 S158A": {"target": "human CD33 S158A (human, UniProt P20138 18-364)", "sequence (P20138 18-364 S158A limits assumed)": "as the sequence (P20138 18-364 D95A limits assumed) above, with A78D, S141A counted along it", "experimental": "as §1, §2"}, "human CD33 F117A": {"target": "human CD33 F117A (human, UniProt P20138 18-364)", "sequence (P20138 18-364 F117A limits assumed)": "as the sequence (P20138 18-364 D95A limits assumed) above, with A78D, F100A counted along it", "experimental": "as §1, §2"}, "human CD33 L161A": {"target": "human CD33 L161A (human, UniProt P20138 18-364)", "sequence (P20138 18-364 L161A limits assumed)": "as the sequence (P20138 18-364 D95A limits assumed) above, with A78D, L144A counted along it", "experimental": "as §1, §2"}, "human CD33 H157A": {"target": "human CD33 H157A (human, UniProt P20138 18-364)", "sequence (P20138 18-364 H157A limits assumed)": "as the sequence (P20138 18-364 D95A limits assumed) above, with A78D, H140A counted along it", "experimental": "as §1, §2"}, "human CD33 T139A": {"target": "human CD33 T139A (human, UniProt P20138 18-364)", "sequence (P20138 18-364 T139A limits assumed)": "as the sequence (P20138 18-364 D95A limits assumed) above, with A78D, T122A counted along it", "experimental": "as §1, §2"}, "human CD33 A108S": {"target": "human CD33 A108S (human, UniProt P20138 18-364)", "sequence (P20138 18-364 A108S limits assumed)": "as the sequence (P20138 18-364 D95A limits assumed) above, with A78D, A91S counted along it", "experimental": "as §1, §2"}, "human CD33 P155A": {"target": "human CD33 P155A (human, UniProt P20138 18-364)", "sequence (P20138 18-364 P155A limits assumed)": "as the sequence (P20138 18-364 D95A limits assumed) above, with A78D, P138A counted along it", "experimental": "as §1, §2"}, "human CD33 M120A": {"target": "human CD33 M120A (human, UniProt P20138 18-364)", "sequence (P20138 18-364 M120A limits assumed)": "as the sequence (P20138 18-364 D95A limits assumed) above, with A78D, M103A counted along it", "experimental": "as §1, §2"}, "human CD33 P96A": {"target": "human CD33 P96A (human, UniProt P20138 18-364)", "sequence (P20138 18-364 P96A limits assumed)": "as the sequence (P20138 18-364 D95A limits assumed) above, with A78D, P79A counted along it", "experimental": "as §1, §2"}, "human CD33 R144A": {"target": "human CD33 R144A (human, UniProt P20138 18-364)", "sequence (P20138 18-364 R144A limits assumed)": "as the sequence (P20138 18-364 D95A limits assumed) above, with A78D, R127A counted along it", "experimental": "as §1, §2"}, "human CD33 L103A": {"target": "human CD33 L103A (human, UniProt P20138 18-364)", "sequence (P20138 18-364 L103A limits assumed)": "as the sequence (P20138 18-364 D95A limits assumed) above, with A78D, L86A counted along it", "experimental": "as §1, §2"}, "human CD33 K146A": {"target": "human CD33 K146A (human, UniProt P20138 18-364)", "sequence (P20138 18-364 K146A limits assumed)": "as the sequence (P20138 18-364 D95A limits assumed) above, with A78D, K129A counted along it", "experimental": "as §1, §2"}, "human CD33 I105A": {"target": "human CD33 I105A (human, UniProt P20138 18-364)", "sequence (P20138 18-364 I105A limits assumed)": "as the sequence (P20138 18-364 D95A limits assumed) above, with A78D, I88A counted along it", "experimental": "as §1, §2"}, "human CD33 F118A": {"target": "human CD33 F118A (human, UniProt P20138 18-364)", "sequence (P20138 18-364 F118A limits assumed)": "as the sequence (P20138 18-364 D95A limits assumed) above, with A78D, F101A counted along it", "experimental": "as §1, §2"}, "human CD33 T142A": {"target": "human CD33 T142A (human, UniProt P20138 18-364)", "sequence (P20138 18-364 T142A limits assumed)": "as the sequence (P20138 18-364 D95A limits assumed) above, with A78D, T125A counted along it", "experimental": "as §1, §2"}, "human CD33 H143A": {"target": "human CD33 H143A (human, UniProt P20138 18-364)", "sequence (P20138 18-364 H143A limits assumed)": "as the sequence (P20138 18-364 D95A limits assumed) above, with A78D, H126A counted along it", "experimental": "as §1, §2"}, "human CD33 S124A": {"target": "human CD33 S124A (human, UniProt P20138 18-364)", "sequence (P20138 18-364 S124A limits assumed)": "as the sequence (P20138 18-364 D95A limits assumed) above, with A78D, S107A counted along it", "experimental": "as §1, §2"}, "human CD33 C163A": {"target": "human CD33 C163A (human, UniProt P20138 18-364)", "sequence (P20138 18-364 C163A limits assumed)": "as the sequence (P20138 18-364 D95A limits assumed) above, with A78D, C146A counted along it", "experimental": "as §1, §2"}, "human CD33 H137A": {"target": "human CD33 H137A (human, UniProt P20138 18-364)", "sequence (P20138 18-364 H137A limits assumed)": "as the sequence (P20138 18-364 D95A limits assumed) above, with A78D, H120A counted along it", "experimental": "as §1, §2"}, "human CD33 D140A": {"target": "human CD33 D140A (human, UniProt P20138 18-364)", "sequence (P20138 18-364 D140A limits assumed)": "as the sequence (P20138 18-364 D95A limits assumed) above, with A78D, D123A counted along it", "experimental": "as §1, §2"}, "human CD33 S104A": {"target": "human CD33 S104A (human, UniProt P20138 18-364)", "sequence (P20138 18-364 S104A limits assumed)": "as the sequence (P20138 18-364 D95A limits assumed) above, with A78D, S87A counted along it", "experimental": "as §1, §2"}},
  "data": [
    {"binder": "B1", "values": [
      {"measurement": "Mean % WT Binding", "setting": "human CD33 D95A", "value": 110, "unit": "% WT binding"},
      {"measurement": "Mean % WT Binding", "setting": "human CD33 G114A", "value": 116, "unit": "% WT binding"},
      {"measurement": "Mean % WT Binding", "setting": "human CD33 T125A", "value": 107, "unit": "% WT binding"},
      {"measurement": "Mean % WT Binding", "setting": "human CD33 L153A", "value": 121, "unit": "% WT binding"},
      {"measurement": "Mean % WT Binding", "setting": "human CD33 R111A", "value": 108, "unit": "% WT binding"},
      {"measurement": "Mean % WT Binding", "setting": "human CD33 N113A", "value": 91, "unit": "% WT binding"},
      {"measurement": "Mean % WT Binding", "setting": "human CD33 L148A", "value": 119, "unit": "% WT binding"},
      {"measurement": "Mean % WT Binding", "setting": "human CD33 L93A", "value": 103, "unit": "% WT binding"},
      {"measurement": "Mean % WT Binding", "setting": "human CD33 S115A", "value": 93.2, "unit": "% WT binding"},
      {"measurement": "Mean % WT Binding", "setting": "human CD33 Q133A", "value": 131, "unit": "% WT binding"},
      {"measurement": "Mean % WT Binding", "setting": "human CD33 T152A", "value": 117, "unit": "% WT binding"},
      {"measurement": "Mean % WT Binding", "setting": "human CD33 R110A", "value": 109, "unit": "% WT binding"},
      {"measurement": "Mean % WT Binding", "setting": "human CD33 D112A", "value": 58.7, "unit": "% WT binding"},
      {"measurement": "Mean % WT Binding", "setting": "human CD33 P132A", "value": 102, "unit": "% WT binding"},
      {"measurement": "Mean % WT Binding", "setting": "human CD33 V138A", "value": 98.5, "unit": "% WT binding"},
      {"measurement": "Mean % WT Binding", "setting": "human CD33 S158A", "value": 111, "unit": "% WT binding"},
      {"measurement": "Mean % WT Binding", "setting": "human CD33 F117A", "value": 111, "unit": "% WT binding"},
      {"measurement": "Mean % WT Binding", "setting": "human CD33 L161A", "value": 114, "unit": "% WT binding"},
      {"measurement": "Mean % WT Binding", "setting": "human CD33 H157A", "value": 115, "unit": "% WT binding"},
      {"measurement": "Mean % WT Binding", "setting": "human CD33 T139A", "value": 123, "unit": "% WT binding"},
      {"measurement": "Mean % WT Binding", "setting": "human CD33 A108S", "value": 104, "unit": "% WT binding"},
      {"measurement": "Mean % WT Binding", "setting": "human CD33 P155A", "value": 126, "unit": "% WT binding"},
      {"measurement": "Mean % WT Binding", "setting": "human CD33 M120A", "value": 70.7, "unit": "% WT binding"},
      {"measurement": "Mean % WT Binding", "setting": "human CD33 P96A", "value": 102, "unit": "% WT binding"},
      {"measurement": "Mean % WT Binding", "setting": "human CD33 R144A", "value": 112, "unit": "% WT binding"},
      {"measurement": "Mean % WT Binding", "setting": "human CD33 L103A", "value": 110, "unit": "% WT binding"},
      {"measurement": "Mean % WT Binding", "setting": "human CD33 K146A", "value": 115, "unit": "% WT binding"},
      {"measurement": "Mean % WT Binding", "setting": "human CD33 I105A", "value": 43.7, "unit": "% WT binding"},
      {"measurement": "Mean % WT Binding", "setting": "human CD33 F118A", "value": 0.6, "unit": "% WT binding"},
      {"measurement": "Mean % WT Binding", "setting": "human CD33 T142A", "value": 104, "unit": "% WT binding"},
      {"measurement": "Mean % WT Binding", "setting": "human CD33 H143A", "value": 104, "unit": "% WT binding"},
      {"measurement": "Mean % WT Binding", "setting": "human CD33 S124A", "value": 111, "unit": "% WT binding"},
      {"measurement": "Mean % WT Binding", "setting": "human CD33 C163A", "value": 97.7, "unit": "% WT binding"},
      {"measurement": "Mean % WT Binding", "setting": "human CD33 H137A", "value": 120, "unit": "% WT binding"},
      {"measurement": "Mean % WT Binding", "setting": "human CD33 D140A", "value": 109, "unit": "% WT binding"},
      {"measurement": "Mean % WT Binding", "setting": "human CD33 S104A", "value": 109, "unit": "% WT binding"}
    ]}
  ]
}
